B1: NLV3 TCR beta chain (CDR3β only) (parent)
chain: ASSPTGGSPSPLH
partner: NLCPMVATV

Variants of: B1
Assay: T-Switch: Jurkat TCRβ−/− cells expressing a CDR3 saturation-mutagenesis library, stained with two peptide-HLA-A*02:01 tetramers (original and novel peptide) plus anti-CD3, FACS-sorted into four gates, gDNA sequenced
Conditions: with HLA-A*02:01 with peptide … (NLV 2-1, the novel peptide), tetramers 1 µg/mL, 30 min on ice, SP, DP and SW gates expanded about 10 days between rounds ('two to three rounds of selection' in the Methods), gate SW: higher = more of the variant in the gate that binds the novel peptide and not the original one = switched binding. Fold enrichment of the CDR3 variant in one FACS gate of a two-tetramer stain, unresolved parent, parent is a CDR3 fragment, scale: fold enrichment, numbering: sequential-on-construct, sequence starts at 1
In the case of […] (CDR3 as printed); L12K derived by comparing it with the table's wild-type CDR3 ASSPTGGSPSPLH, the enrichment is reported as 0. For […] (CDR3 as printed); S8K derived by comparing it with the table's wild-type CDR3 ASSPTGGSPSPLH, the enrichment was 0. […] (CDR3 as printed); S8L derived by comparing it with the table's wild-type CDR3 ASSPTGGSPSPLH gave an enrichment of 0. For […] (CDR3 as printed); P9H derived by comparing it with the table's wild-type CDR3 ASSPTGGSPSPLH, the enrichment was 0. […] (CDR3 as printed); H13G derived by comparing it with the table's wild-type CDR3 ASSPTGGSPSPLH was tested, and the enrichment was 0. […] (CDR3 as printed); G6P derived by comparing it with the table's wild-type CDR3 ASSPTGGSPSPLH showed an enrichment of 0. With […] (CDR3 as printed); P9N derived by comparing it with the table's wild-type CDR3 ASSPTGGSPSPLH the enrichment was 0. Variant […] (CDR3 as printed); S8C derived by comparing it with the table's wild-type CDR3 ASSPTGGSPSPLH has an enrichment of 0. […] (CDR3 as printed); G6R derived by comparing it with the table's wild-type CDR3 ASSPTGGSPSPLH was tested, and the enrichment was 0. For […] (CDR3 as printed); L12E derived by comparing it with the table's wild-type CDR3 ASSPTGGSPSPLH, the enrichment was 0. […] (CDR3 as printed); P4E derived by comparing it with the table's wild-type CDR3 ASSPTGGSPSPLH was tested, and the enrichment was 0. […] (CDR3 as printed); S3G derived by comparing it with the table's wild-type CDR3 ASSPTGGSPSPLH gave an enrichment of 0. For […] (CDR3 as printed); G7S derived by comparing it with the table's wild-type CDR3 ASSPTGGSPSPLH, the enrichment was 0. Variant […] (CDR3 as printed); G7Y derived by comparing it with the table's wild-type CDR3 ASSPTGGSPSPLH has an enrichment of 0. Work on […] (CDR3 as printed); P9F derived by comparing it with the table's wild-type CDR3 ASSPTGGSPSPLH yielded an enrichment of 0. In the case of […] (CDR3 as printed); L12I derived by comparing it with the table's wild-type CDR3 ASSPTGGSPSPLH, the enrichment is reported as 0. Work on […] (CDR3 as printed); G7H derived by comparing it with the table's wild-type CDR3 ASSPTGGSPSPLH yielded an enrichment of 0. Variant […] (CDR3 as printed); S8P derived by comparing it with the table's wild-type CDR3 ASSPTGGSPSPLH has an enrichment of 0. With […] (CDR3 as printed); S2C derived by comparing it with the table's wild-type CDR3 ASSPTGGSPSPLH the enrichment was 0. […] (CDR3 as printed); P4M derived by comparing it with the table's wild-type CDR3 ASSPTGGSPSPLH gave an enrichment of 0. In the case of […] (CDR3 as printed); G6Q derived by comparing it with the table's wild-type CDR3 ASSPTGGSPSPLH, the enrichment is reported as 0. With […] (CDR3 as printed); T5G derived by comparing it with the table's wild-type CDR3 ASSPTGGSPSPLH the enrichment was 0. Variant […] (CDR3 as printed); P9D derived by comparing it with the table's wild-type CDR3 ASSPTGGSPSPLH has an enrichment of 0. With […] (CDR3 as printed); S2M derived by comparing it with the table's wild-type CDR3 ASSPTGGSPSPLH the enrichment was 0. Variant […] (CDR3 as printed); H13R derived by comparing it with the table's wild-type CDR3 ASSPTGGSPSPLH has an enrichment of 0. For […] (CDR3 as printed); P9K derived by comparing it with the table's wild-type CDR3 ASSPTGGSPSPLH, the enrichment was 0. In the case of […] (CDR3 as printed); S8V derived by comparing it with the table's wild-type CDR3 ASSPTGGSPSPLH, the enrichment is reported as 0. […] (CDR3 as printed); S10T derived by comparing it with the table's wild-type CDR3 ASSPTGGSPSPLH showed an enrichment of 0. […] (CDR3 as printed); S2T derived by comparing it with the table's wild-type CDR3 ASSPTGGSPSPLH was tested, and the enrichment was 0. In the case of […] (CDR3 as printed); G6E derived by comparing it with the table's wild-type CDR3 ASSPTGGSPSPLH, the enrichment is reported as 0. In the case of […] (CDR3 as printed); H13Q derived by comparing it with the table's wild-type CDR3 ASSPTGGSPSPLH, the enrichment is reported as 0. In the case of […] (CDR3 as printed); L12A derived by comparing it with the table's wild-type CDR3 ASSPTGGSPSPLH, the enrichment is reported as 0. […] (CDR3 as printed); G6S derived by comparing it with the table's wild-type CDR3 ASSPTGGSPSPLH showed an enrichment of 0. Work on […] (CDR3 as printed); P11N derived by comparing it with the table's wild-type CDR3 ASSPTGGSPSPLH yielded an enrichment of 0. Variant […] (CDR3 as printed); S10Q derived by comparing it with the table's wild-type CDR3 ASSPTGGSPSPLH has an enrichment of 0. With […] (CDR3 as printed); G6Y derived by comparing it with the table's wild-type CDR3 ASSPTGGSPSPLH the enrichment was 0. […] (CDR3 as printed); P4H derived by comparing it with the table's wild-type CDR3 ASSPTGGSPSPLH gave an enrichment of 0. With […] (CDR3 as printed); S8H derived by comparing it with the table's wild-type CDR3 ASSPTGGSPSPLH the enrichment was 0. Variant […] (CDR3 as printed); G7D derived by comparing it with the table's wild-type CDR3 ASSPTGGSPSPLH has an enrichment of 0. With […] (CDR3 as printed); S8Q derived by comparing it with the table's wild-type CDR3 ASSPTGGSPSPLH the enrichment was 0. […] (CDR3 as printed); P9L derived by comparing it with the table's wild-type CDR3 ASSPTGGSPSPLH was tested, and the enrichment was 0. Work on […] (CDR3 as printed); P11H derived by comparing it with the table's wild-type CDR3 ASSPTGGSPSPLH yielded an enrichment of 0. In the case of […] (CDR3 as printed); P11K derived by comparing it with the table's wild-type CDR3 ASSPTGGSPSPLH, the enrichment is reported as 0. Work on […] (CDR3 as printed); P11Y derived by comparing it with the table's wild-type CDR3 ASSPTGGSPSPLH yielded an enrichment of 0. With […] (CDR3 as printed); H13T derived by comparing it with the table's wild-type CDR3 ASSPTGGSPSPLH the enrichment was 0. Work on […] (CDR3 as printed); P9M derived by comparing it with the table's wild-type CDR3 ASSPTGGSPSPLH yielded an enrichment of 0. In the case of […] (CDR3 as printed); L12H derived by comparing it with the table's wild-type CDR3 ASSPTGGSPSPLH, the enrichment is reported as 0. […] (CDR3 as printed); S10N derived by comparing it with the table's wild-type CDR3 ASSPTGGSPSPLH gave an enrichment of 0. […] (CDR3 as printed); S8N derived by comparing it with the table's wild-type CDR3 ASSPTGGSPSPLH gave an enrichment of 0. With […] (CDR3 as printed); P11T derived by comparing it with the table's wild-type CDR3 ASSPTGGSPSPLH the enrichment was 0. Work on […] (CDR3 as printed); G6K derived by comparing it with the table's wild-type CDR3 ASSPTGGSPSPLH yielded an enrichment of 0. In the case of […] (CDR3 as printed); S3M derived by comparing it with the table's wild-type CDR3 ASSPTGGSPSPLH, the enrichment is reported as 0. […] (CDR3 as printed); S10D derived by comparing it with the table's wild-type CDR3 ASSPTGGSPSPLH was tested, and the enrichment was 0. Variant […] (CDR3 as printed); P4F derived by comparing it with the table's wild-type CDR3 ASSPTGGSPSPLH has an enrichment of 0. Variant […] (CDR3 as printed); S10V derived by comparing it with the table's wild-type CDR3 ASSPTGGSPSPLH has an enrichment of 0. With […] (CDR3 as printed); S8F derived by comparing it with the table's wild-type CDR3 ASSPTGGSPSPLH the enrichment was 0. Work on […] (CDR3 as printed); P11L derived by comparing it with the table's wild-type CDR3 ASSPTGGSPSPLH yielded an enrichment of 0. Work on […] (CDR3 as printed); P9I derived by comparing it with the table's wild-type CDR3 ASSPTGGSPSPLH yielded an enrichment of 0. Work on […] (CDR3 as printed); A1G derived by comparing it with the table's wild-type CDR3 ASSPTGGSPSPLH yielded an enrichment of 0. Work on […] (CDR3 as printed); S3N derived by comparing it with the table's wild-type CDR3 ASSPTGGSPSPLH yielded an enrichment of 0. […] (CDR3 as printed); S2K derived by comparing it with the table's wild-type CDR3 ASSPTGGSPSPLH showed an enrichment of 0. For […] (CDR3 as printed); H13C derived by comparing it with the table's wild-type CDR3 ASSPTGGSPSPLH, the enrichment was 0. […] (CDR3 as printed); P11I derived by comparing it with the table's wild-type CDR3 ASSPTGGSPSPLH was tested, and the enrichment was 0. Work on […] (CDR3 as printed); P9A derived by comparing it with the table's wild-type CDR3 ASSPTGGSPSPLH yielded an enrichment of 0. Work on […] (CDR3 as printed); P9R derived by comparing it with the table's wild-type CDR3 ASSPTGGSPSPLH yielded an enrichment of 0. […] (CDR3 as printed); S8Y derived by comparing it with the table's wild-type CDR3 ASSPTGGSPSPLH showed an enrichment of 0. For […] (CDR3 as printed); S3L derived by comparing it with the table's wild-type CDR3 ASSPTGGSPSPLH, the enrichment was 0. Variant […] (CDR3 as printed); H13Y derived by comparing it with the table's wild-type CDR3 ASSPTGGSPSPLH has an enrichment of 0. Variant […] (CDR3 as printed); A1C derived by comparing it with the table's wild-type CDR3 ASSPTGGSPSPLH has an enrichment of 0. With […] (CDR3 as printed); G7I derived by comparing it with the table's wild-type CDR3 ASSPTGGSPSPLH the enrichment was 0. Variant […] (CDR3 as printed); P9Y derived by comparing it with the table's wild-type CDR3 ASSPTGGSPSPLH has an enrichment of 0. […] (CDR3 as printed); A1N derived by comparing it with the table's wild-type CDR3 ASSPTGGSPSPLH showed an enrichment of 0. […] (CDR3 as printed); S8A derived by comparing it with the table's wild-type CDR3 ASSPTGGSPSPLH was tested, and the enrichment was 0. Work on […] (CDR3 as printed); S3R derived by comparing it with the table's wild-type CDR3 ASSPTGGSPSPLH yielded an enrichment of 0. […] (CDR3 as printed); A1Q derived by comparing it with the table's wild-type CDR3 ASSPTGGSPSPLH showed an enrichment of 0. Variant […] (CDR3 as printed); S3E derived by comparing it with the table's wild-type CDR3 ASSPTGGSPSPLH has an enrichment of 0. With […] (CDR3 as printed); P4L derived by comparing it with the table's wild-type CDR3 ASSPTGGSPSPLH the enrichment was 0. In the case of […] (CDR3 as printed); P11V derived by comparing it with the table's wild-type CDR3 ASSPTGGSPSPLH, the enrichment is reported as 0. For […] (CDR3 as printed); T5W derived by comparing it with the table's wild-type CDR3 ASSPTGGSPSPLH, the enrichment was 0. […] (CDR3 as printed); H13K derived by comparing it with the table's wild-type CDR3 ASSPTGGSPSPLH gave an enrichment of 0. With […] (CDR3 as printed); P11F derived by comparing it with the table's wild-type CDR3 ASSPTGGSPSPLH the enrichment was 0. […] (CDR3 as printed); G6L derived by comparing it with the table's wild-type CDR3 ASSPTGGSPSPLH was tested, and the enrichment was 0. In the case of […] (CDR3 as printed); G7V derived by comparing it with the table's wild-type CDR3 ASSPTGGSPSPLH, the enrichment is reported as 0. For […] (CDR3 as printed); S2E derived by comparing it with the table's wild-type CDR3 ASSPTGGSPSPLH, the enrichment was 0.

Same assay, conditions: with HLA-A*02:01 with peptide … (NLV 2-1, the novel peptide), tetramers 1 µg/mL, 30 min on ice, SP, DP and SW gates expanded about 10 days between rounds ('two to three rounds of selection' in the Methods), gate SW: higher = more of the variant in the gate that binds the novel peptide and not the original one = switched binding. Fold enrichment of the CDR3 variant in one FACS gate of a two-tetramer stain, unresolved parent, parent is a CDR3 fragment, zero in all gates, scale: fold enrichment, numbering: sequential-on-construct, …
Variant […] (CDR3 as printed); G7P derived by comparing it with the table's wild-type CDR3 ASSPTGGSPSPLH has an enrichment of 0.

From PMC13397619
